Measurements reported in patent US12559749B2, “Methods of rescuing stop codons via genetic reassignment with ACE-tRNA” (UNIVERSITY OF IOWA RESEARCH FOUNDATION, priority 2017, dated 2026).

Test system: CFTR G542X
Assay: Two-electrode voltage clamp of CFTR Cl- current in Xenopus oocytes, G542X
Format: cell-based
Procedure: FIGS. 20A-20D. Delivery of ACE-tRNA as small RNA supports robust suppression of G542X and W1282X nonsense mutations. FIG. 20A) CFTR cRNA with G542X or W1282X cystic fibrosis causing nonsense mutations was co-injected in Xenopus oocytes with serial dilutions of pre-folded ACE-tRNAGly and ACE-tRNATrp, respectively. Two-electrode voltage-clamp recordings of CFTR Cl— current were performed after 36 hrs. Current-voltage relationships illustrate that increasing amounts of FIG. 20B) ACE-tRNATrp and FIG. 20C) ACE-tRNAGly pre-folded RNA results in increased CFTR function (measured CFTR Cl— currents) with WT CFTR achieved in ACE-tRNAGly experiments. FIG. 20D) Dose response of G542X ACE-tRNAGly (filled circles) and W1282X ACE-tRNATrp (open squares) rescue (CFTR Cl— currents elicited at +40 mV were normalized to WT CFTR Cl— currents at +40 mV).
In vitro cRNA transcription. G5-42XUGA, W1282XUGA, and WT CFTR pGEMHE (Mense et al., 2006; PMID:1703051) plasmids were linearized by 10× excess of NheI-HF restriction enzyme (site positioned 3′ of coding region)(New England BioLabs, USA) for 3 hrs at 37° C. and purified using standard cDNA precipitation methods. All cRNAs were transcribed using the mMessage mMachine T7 Kit (ThermoFisher Scientific, USA). Purification of the cRNA from the transcription reaction was conducted on columns from the RNeasy Mini Kit (Qiagen, Germany). Concentration was determined by absorbance measurements at 260 nm and quality was confirmed on a 1% agarose gel (RNase-free). All cRNA was queued to 1 μg/ml before use and all results were generated from ≥2:2 cRNA preparations.
Expression in Xenopus laevis oocytes. Xenopus laevis oocytes (stage V and VI) were purchased from Ecocyte (Austin, TX). […]
Two-electrode voltage clamp ([…]) recordings. CFTR Cl^− currents were recorded in ND96 bath solution that contained (in mM): 96 NaCl, 2 KCl, 1 MgCl2, and 5 HEPES (pH 7.5) in the presence of a maximal CFTR activation cocktail, forskolin (10 μM; adenylate cyclase activator) and 3-isobutyl-1-methylxanthine (1 mM; phosphodiesterase inhibitor). […]

B1: Glychr19.trna2: top performing glycine ACE-tRNA UGA, SEQ ID NO: 53 (nucleic acid)
chain: GCGUUGGUGGUAUAGUGGUUAGCAUAGCUGCCUUCAAAGCAGUUGACCCGGGUUCGAUUCCCGGCCAACGCA
modifications: chemistry not given here
- Hill coefficient (dose response of G542X rescue): ~1.4
- level of CFTR function reached (normalized to WT CFTR Cl- currents): clear saturation at WT CFTR levels
- EC50 of CFTR Cl- current rescue (pre-folded ACE-tRNA RNA per oocyte, 36 hrs, currents at +40 mV normalized to WT CFTR): ~20 ng
